# Test results from PMC2733336 (Insect biochemistry and molecular biology, 2009).
# T1: cLac2 (endogenous cuticular laccase-2) (Manduca sexta, UniProt Q8I8Y0)
# T1 sequence (Q8I8Y0 142-760): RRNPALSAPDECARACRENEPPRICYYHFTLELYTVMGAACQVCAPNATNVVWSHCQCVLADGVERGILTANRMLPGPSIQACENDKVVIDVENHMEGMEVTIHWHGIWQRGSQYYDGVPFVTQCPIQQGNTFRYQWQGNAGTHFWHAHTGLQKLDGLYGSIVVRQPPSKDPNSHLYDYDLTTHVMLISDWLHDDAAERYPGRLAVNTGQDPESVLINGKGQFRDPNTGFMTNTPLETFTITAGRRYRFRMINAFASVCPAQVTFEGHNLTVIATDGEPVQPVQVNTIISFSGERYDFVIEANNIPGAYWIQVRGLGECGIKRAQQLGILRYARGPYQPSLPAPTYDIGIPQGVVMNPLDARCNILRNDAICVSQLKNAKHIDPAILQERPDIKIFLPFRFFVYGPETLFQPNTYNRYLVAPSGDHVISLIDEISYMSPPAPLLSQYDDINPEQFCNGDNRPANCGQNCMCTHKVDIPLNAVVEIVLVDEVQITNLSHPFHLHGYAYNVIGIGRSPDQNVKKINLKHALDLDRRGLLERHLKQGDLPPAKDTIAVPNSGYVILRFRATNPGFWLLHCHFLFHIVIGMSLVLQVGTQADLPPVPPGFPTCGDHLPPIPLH
# T2: rLac2 (full-length recombinant laccase-2) (Manduca sexta, UniProt Q8I8Y0)
# T2 sequence (Q8I8Y0 24-760): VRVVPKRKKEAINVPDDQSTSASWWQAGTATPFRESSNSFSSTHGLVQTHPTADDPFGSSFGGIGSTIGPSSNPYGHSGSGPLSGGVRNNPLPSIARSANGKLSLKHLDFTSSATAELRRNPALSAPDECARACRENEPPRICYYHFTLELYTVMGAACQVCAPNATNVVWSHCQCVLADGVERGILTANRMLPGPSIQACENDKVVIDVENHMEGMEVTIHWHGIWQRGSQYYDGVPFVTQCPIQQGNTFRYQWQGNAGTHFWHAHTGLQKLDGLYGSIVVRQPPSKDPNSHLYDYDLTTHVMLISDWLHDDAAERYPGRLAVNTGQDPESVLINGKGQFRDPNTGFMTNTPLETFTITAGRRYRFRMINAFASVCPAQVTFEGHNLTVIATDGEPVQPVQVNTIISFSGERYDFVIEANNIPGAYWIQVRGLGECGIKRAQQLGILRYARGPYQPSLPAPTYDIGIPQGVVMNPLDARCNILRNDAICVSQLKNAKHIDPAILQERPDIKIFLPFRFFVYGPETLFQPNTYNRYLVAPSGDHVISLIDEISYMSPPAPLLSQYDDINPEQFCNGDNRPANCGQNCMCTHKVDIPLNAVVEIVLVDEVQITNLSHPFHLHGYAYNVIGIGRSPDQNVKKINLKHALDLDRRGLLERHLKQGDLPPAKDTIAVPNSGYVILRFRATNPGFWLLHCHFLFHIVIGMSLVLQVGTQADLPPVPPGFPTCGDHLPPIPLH
# B1: rLac2 (full-length recombinant laccase-2) (Manduca sexta) (protein)
# chain: T2 sequence (Q8I8Y0 24-760)
# B2: cLac2 (endogenous cuticular laccase-2) (Manduca sexta) (protein)
# chain: T1 sequence (Q8I8Y0 142-760)
# How the values were obtained:
# [1] = target: T1, cLac2 (endogenous cuticular laccase-2); experiment: spectrophotometric, quinone formation at […] nm; assay type: biochemical; conditions: substrate inhibition (uncompetitive) constant; 100 mM sodium citrate pH 5; air
# [2] = target: T2, rLac2 (full-length recombinant laccase-2); experiment: spectrophotometric, quinone formation at […] nm; assay type: biochemical; conditions: substrate inhibition (uncompetitive) constant; 100 mM sodium citrate pH 5; air
# purified protein [3] = substrate: CC(=O)NCCc1ccc(O)c(O)c1; experiment: purified protein; assay type: biochemical, Manduca sexta; conditions: 100 mM sodium citrate pH 5, air
# purified protein [4] = substrate: CCn1c(=NN=c2sc3cc(S(=O)(=O)O)ccc3n2CC)sc2cc(S(=O)(=O)O)ccc21; experiment: purified protein; assay type: biochemical, Manduca sexta; conditions: 100 mM sodium citrate pH 5, air, data not shown
Ksi [1],Ksi [2],Molecule,Km (purified protein [3]),Vmax (purified protein [3]),kcat (purified protein [3]),kcat/Km (purified protein [3]),Km (purified protein [4]),kcat (purified protein [4])
9.7 ± 1.3 mM,6.7 ± 1.4 mM,NCCC(=O)NCCc1ccc(O)c(O)c1 [NBAD],,,,,,
,,B1,460 ± 50 µM,3.1 ± 0.1 µM/min,1.67 ± 0.05 s⁻¹,3670 M⁻¹ s⁻¹,,
,,B2,630 ± 50 µM,10.5 ± 0.25 µM/min,4.83 ± 0.117 s⁻¹,7670 M⁻¹ s⁻¹,1500 µM,7.67 s⁻¹
